Like-named read-outs stand apart in the source and are kept apart here.
B2: Kapβ2_(W460A:W730A) (receptor, human, UniProt Q92973-2 1-890, looked up)
chain: MEYEWKPDEQGLQQILQLLKESQSPDTTIQRTVQQKLEQLNQYPDFNNYLIFVLTKLKSEDEPTRSLSGLILKNNVKAHFQNFPNGVTDFIKSECLNNIGDSSPLIRATVGILITTIASKGELQNWPDLLPKLCSLLDSEDYNTCEGAFGALQKICEDSAEILDSDVLDRPLNIMIPKFLQFFKHSSPKIRSHAVACVNQFIISRTQALMLHIDSFIENLFALAGDEEPEVRKNVCRALVMLLEVRMDRLLPHMHNIVEYMLQRTQDQDENVALEACEFWLTLAEQPICKDVLVRHLPKLIPVLVNGMKYSDIDIILLKGDVEEDETIPDSEQDIRPRFHRSRTVAQQHDEDGIEEEDDDDDEIDDDDTISDWNLRKCSAAALDVLANVYRDELLPHILPLLKELLFHHEWVVKESGILVLGAIAEGCMQGMIPYLPELIPHLIQCLSDKKALVRSITCATLSRYAHWVVSQPPDTYLKPLMTELLKRILDSNKRVQEAACSAFATLEEEACTELVPYLAYILDTLVFAFSKYQHKNLLILYDAIGTLADSVGHHLNKPEYIQMLMPPLIQKWNMLKDEDKDLFPLLECLSSVATALQSGFLPYCEPVYQRCVNLVQKTLAQAMLNNAQPDQYEAPDKDFMIVALDLLSGLAEGLGGNIEQLVARSNILTLMYQCMQDKMPEVRQSSFALLGDLTKACFQHVKPCIADFMPILGTNLNPEFISVCNNATAAIGEISIQMGIEMQPYIPMVLHQLVEIINRPNTPKTLLENTAITIGRLGYVCPQEVAPMLQQFIRPWCTSLRNIRDNEEKDSAFRGICTMISVNPSGVIQDFIFFCDAVASWINPKDDLRDMFCKILHGFKNQVGDENWRRFSDQFPLPLKERLAAFYGV

Experiments:
Assay in all cases: fluorescence polarisation
[1] = target: T1, WT Kapβ2 (human, UniProt Q92973-2 1-890)
T1 sequence (looked up): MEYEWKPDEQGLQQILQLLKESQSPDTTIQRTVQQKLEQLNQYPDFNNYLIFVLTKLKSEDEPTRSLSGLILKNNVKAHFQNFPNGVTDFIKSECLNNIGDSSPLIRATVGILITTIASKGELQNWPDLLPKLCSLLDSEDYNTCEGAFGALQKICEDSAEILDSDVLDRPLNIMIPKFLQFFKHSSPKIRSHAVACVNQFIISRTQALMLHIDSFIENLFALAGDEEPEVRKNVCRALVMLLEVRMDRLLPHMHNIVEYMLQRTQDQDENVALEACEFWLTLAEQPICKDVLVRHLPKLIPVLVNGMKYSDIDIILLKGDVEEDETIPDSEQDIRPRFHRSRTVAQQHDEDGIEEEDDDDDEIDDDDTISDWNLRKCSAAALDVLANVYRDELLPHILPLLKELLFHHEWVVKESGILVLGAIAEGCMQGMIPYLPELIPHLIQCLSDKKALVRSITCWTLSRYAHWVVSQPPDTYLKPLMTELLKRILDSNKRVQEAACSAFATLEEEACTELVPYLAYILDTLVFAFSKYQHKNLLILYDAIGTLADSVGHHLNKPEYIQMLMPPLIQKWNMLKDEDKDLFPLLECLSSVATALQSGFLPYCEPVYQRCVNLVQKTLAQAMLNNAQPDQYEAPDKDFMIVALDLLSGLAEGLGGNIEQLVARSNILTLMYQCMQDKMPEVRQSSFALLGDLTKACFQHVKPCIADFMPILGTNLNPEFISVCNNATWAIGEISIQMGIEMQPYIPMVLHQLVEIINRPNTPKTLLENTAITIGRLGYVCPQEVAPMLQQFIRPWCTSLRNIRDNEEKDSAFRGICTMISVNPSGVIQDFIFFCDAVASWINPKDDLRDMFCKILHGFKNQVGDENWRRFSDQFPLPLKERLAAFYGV

[2] = target: B2
[3] = target: T2, TAMRA-(GR)20 (TAMRA label (position not given))
T2 peptide: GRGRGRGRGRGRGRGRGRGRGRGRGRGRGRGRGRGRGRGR

[4] = target: T3, TAMRA-(PR)20 (TAMRA label (position not given))
T3 peptide: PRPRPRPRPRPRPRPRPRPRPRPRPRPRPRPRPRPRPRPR

[5] = target: T2, TAMRA-(GR)20
[6] = target: T3, TAMRA-(PR)20

B1: FUS-GFP (natural protein, UniProt P35637 1-526, looked up)
chain: MASNDYTQQATQSYGAYPTQPGQGYSQQSSQPYGQQSYSGYSQSTDTSGYGQSSYSSYGQSQNTGYGTQSTPQGYGSTGGYGSSQSSQSSYGQQSSYPGYGQQPAPSSTSGSYGSSSQSSSYGQPQSGSYSQQPSYGGQQQSYGQQQSYNPPQGYGQQNQYNSSSGGGGGGGGGGNYGQDQSSMSSGGGSGGGYGNQDQSGGGGSGGYGQQDRGGRGRGGSGGGGGGGGGGYNRSSGGYEPRGRGGGRGGRGGMGGSDRGGFNKFGGPRDQGSRHDSEQDNSDNNTIFVQGLGENVTIESVADYFKQIGIIKTNKKTGQPMINLYTDRETGKLKGEATVSFDDPPSAKAAIDWFDGKEFSGNPIKVSFATRRADFNRGGGNGRGGRGRGGPMGRGGYGGGGSGGGGRGGFPSGGGGGGGQQRAGDWKCPNPTCENMNFSWRNECNQCKAPKPDGPGGGPGGSHMGGNYGDDRRGGRGGYDRGGYRGRGGDRGGFRGGRGGGDRGGFGPGKMDSRGEHRQDRRERPY
[1]
  Kd: 39.6 ± 17.7 nM
[2]
  Kd: 124 ± 58.5 nM

## B2
[3]
  affinity relative to that of FUS for Kapβ2_(W460A:W730A): ~1.5 times
[4]
  affinity relative to that of FUS for Kapβ2_(W460A:W730A): ~1.5 times
[5]
  affinity relative to that of FUS for Kapβ2_(W460A:W730A): ~3 times
[6]
  affinity relative to that of FUS for Kapβ2_(W460A:W730A): ~3 times

From article PMC11696677 (Communications Biology, 2025)
